Assay results: US8927207B2, “miRNAs as therapeutic targets in cancer” (Research Foundation of State University of New York, priority 2008, dated 2015)
Like-named read-outs stand apart in the source and are kept apart here.

Tests used:
[1] = system: conserved p53-binding promoter of miR-192; assay: luciferase reporter assay of p53-binding promoter of miR-192; type: cell-based, human; conditions: HCT (wt-p53) cells, 5 μmol/L for 24 hours
Description: Luciferase reporter assay was used to determine the transcriptional activation of conserved p53-binding promoter of miR-192. pGL3-Basic promoterless luciferase reporter plasmid (Promega) was used in this study. Double-stranded DNA oligonucleotides of conserved p53-binding sequence of miR-192 was synthesized and annealed and cloned upstream of firefly luciferase in the pGL3-Basic plasmid (miR-192-pGL3). […] Control vector and miR-192-pGL3 vector were transfected into both HCT-116 (wt-p53) and HCT-116 (null-p53) cells. To further induce p53 expression, transfected HCT-116 (wt-p53) and HCT-116 (null-p53) cells were also treated with 5 μmol/L 5-fluorouracil for 24 hours. The promoter activity of each construct was quantified by dual luciferase assay (Promega) 24 hours after transfection.

U-2 OS cells [2] = assay: WST-1 chemosensitivity to MTX after transfection; type: cell-based; conditions: for IC50: Homo sapiens, U2OS, 72 h
miR-192 = assay: real time qRT-PCR of endogenous mature miR-192 after MTX treatment; type: cell-based, human
Description: Thereafter, the expression of endogenous mature miR-192 was analyzed by real time qRT-PCT analysis using an internal control RNU6B as an internal standard for normalization. The cDNA synthesis was carried out with the High Capacity cDNA synthesis kit (Applied Biosystems) using 10 ng of total RNA as template. The miRNA sequence-specific RT-PCR primers for miR-192 and endogenous control RNU6B were purchased from Ambion. Real-time quantitative reverse transcription-PCR (qRT-PCR) analysis was carried out using Applied Biosystems 7500 Real-Time PCR System. The PCR master mix containing TaqMan 2× Universal PCR Master Mix (No Amperase UNG), 10× TaqMan assay and RT products in 20 μl volume were processed as follows: 95° C. for 10 minutes, and then 95° C. for 15 seconds, 60° C. for 60 seconds for up to 40 cycles (n=3). Signal was collected at the endpoint of every cycle. The gene expression ΔCT values of miRNAs from each sample were calculated by normalizing with internal control RNU6B and relative quantitation values were plotted.

HCT-116(wt-p53) cells = assay: WST-1 chemosensitivity to TDX after transfection; type: cell-based; conditions: Homo sapiens, HCT-116, 72 h
Description: HCT-116 (wt-p53) cells were plated in 96-well plates at 1×10^3 cells/well in triplicate and were transfected with miR-215 precursor, non-specific control miRNA, or siRNA against TS or DHFR in 100 μl of medium. […] To measure viable cells, 10 μl of WST-1 (Roche Applied Science) was added to each well. After 2 hours incubation, absorbance was measured at 450 and 630 nm respectively (n=3). Non-specific control miRNA alone was used as a negative control, and siRNAs incubation with TDX or MTX were used as the positive controls.

p53 = assay: western immunoblot of p53 in HCT-116 (wt-p53) and U-2 OS cells; type: cell-based; conditions: both HCT-116 (wt-p53) and U-2 OS cells, 48 h after transfection
Text: (§1) miR-215 increases the expression of cell cycle control genes p53 and p21. p53 and p21, a downstream target of the p53 pathway of growth control, are reported to block cells at G2 checkpoint mainly through inhibiting activity of Cdc2, the cyclin-dependent kinase that normally drives cells into mitosis, which is the ultimate target of pathways that mediate rapid arrest in G2 in response to DNA damage. To further analyze the mechanism of cell proliferation inhibition by miR-215, we transfected miR-215 precursor into HCT-116 (wt-p53) and U-2 OS cells, and evaluated the levels of cell cycle control genes p53 and p21 by western immunoblot analysis.

U-2 OS cells [3] = assay: cell cycle analysis by flow cytometry; type: cell-based
Description: miR-215 induces G2-arrest in HCT-116 (wt-p53) and U-2 OS cells. To investigate the mechanism by which miR-215 suppressed cell proliferation in HCT-116 (wt-p53) and U-2 OS cells, the impact of miR-215 on cell cycle control was analyzed by flow cytometry at 36 h after transfection. HCT-116 (wt-p53), HCT-116 (null-p53), U-2 OS and MG63 cells were transfected with miR-215 precursor and the non-specific control miRNA described as above. At 36 h after transfection, cells were harvested and resuspended at 0.5-1 10^5 cells/ml in modified Krishan buffer containing 0.1% sodium citrate and 0.3% NP-40 and kept at 4° C. Before analysis by flow cytometry, cells were treated with 0.02 mg/ml RNase H and stained with 0.05 mg/ml propidium iodide (Sigma).

TS mRNA = assay: real time qRT-PCR of TS mRNA; type: cell-based; conditions: U-2 OS cells
Description: (§6) Expression levels of TS or DHFR mRNA were analyzed using real time qRT-PCR analysis (FIG. 15).

3′UTR of TS = assay: pMIR-REPORT dual-luciferase reporter assay; type: cell-based, human; conditions: HCT-116 (wt-p53), 30 hours after transfection, compared to the vector alone
Text: (§2) To confirm whether miR-215 directly targets TS or DHFR, plasmids were constructed containing the fragments of the 3′UTR of TS or DHFR in the downstream region of firefly luciferase. The pMIR-REPORT Luciferase miRNA Expression Reporter Vector (Ambion) was used to determine the targets of miR-215. Double stranded DNA oligonucleotides containing the miR-215 binding sequence (wt-miR-215) or mismatch sequence (mut-miR-215) in 3′UTR of TS or DHFR mRNA and the HindIII and SpeI restriction site overhangs were synthesized (IDT, Coralville, Iowa) and annealed and cloned downstream of firefly luciferase in the pMIR-REPORT plasmid. The sequences of these synthesized oligonucleotides are provided below. The 3′UTR of TS includes two miR-215 binding sites: one is located at 84-104 bp, one is located at 216-236 bp.
(§3) The constructs were transiently transfected into HCT-116 (wt-p53) cells alone (control) or together with miR-215 precursor. […] Thirty hours after transfection, cells were lysated and luciferase activity was measured by the dual-luciferase reporter assay system (Promega, Madison, Wis.) according to the instructions. […]

3′UTR of DHFR = assay: pMIR-REPORT dual-luciferase reporter assay; type: cell-based, human; conditions: HCT-116 (wt-p53), 30 hours after transfection, compared to the vector alone
Text: as §2, §3

DHFR mRNA = assay: real time qRT-PCR of DHFR mRNA; type: cell-based; conditions: U-2 OS cells
Description: as §6

p21 = assay: western immunoblot of p21 in HCT-116 (wt-p53) and U-2 OS cells; type: cell-based; conditions: both HCT-116 (wt-p53) and U-2 OS cells, 48 h after transfection
Text: as §1

HCT-116 (wt-p53) cells = assay: WST-1 cell proliferation after miR-215 transfection; type: cell-based, human; conditions: day 5, vs non-specific miRNA control
Description: (§4) miR-215 inhibits cell proliferation of HCT-116(wt-p53) and U-2 OS cells.
(§5) Cell proliferation assays were performed on the transduced cells. HCT-116 (wt-p53), HCT-116 (null-p53), U-2 OS, and MG63 cells were plated in 96-well plates in triplicate at 1 10^3 cells/well after transfection with miR-215 precursor or non-specific control miRNA. Cells were cultured for 24, 48, 72, 96 h. The absorbance at 450 and 630 nm was measured after incubation with 10 μl of WST-1 for 2 h.

TS = assay: western immunoblot of TS protein after transfection; type: cell-based; conditions: 48 hours after transfection
Description: At 48 h after transfection with miR-215, miR-192 precursors or non-specific control miRNA, the cells were scraped and lysed in RIPA buffer (Sigma). Equal amounts of proteins were resolved by SDS-PAGE on 12% gels by the method of Laemmli, and transferred to polyvinylidene fluoride membranes (BIO-RAD Laboratories). The membranes were then blocked by 5% nonfat milk in TBS-T (Tris-buffered saline and 0.5% Tween-20) at room temperature for 1 h. The primary antibodies used for the analysis included mouse anti-TS mAb (1:400, Millipore), mouse anti-DHFR mAb (1:250, BD Bioscience), mouse anti-p53 mAb (1:1000, DO-1), mouse anti-p21 mAb (1:1000, F-5), and mouse anti-α-tubulin mAb (1:1000, TU-02) purchased from Santa Cruz Biotechnology. Horseradish peroxidase—conjugated antibodies against mouse (1:1000, Santa Cruz Biotechnology) were used as the secondary antibodies. Protein bands were visualized with a chemiluminescence detection system using the Super Signal substrate (BIO-RAD).
At 48 hours after transfection, proteins were extracted from miR-215-transfected cells and from control cells and changes in TS or DHFR protein levels were determined by western immunoblot analysis (FIG. 14).

U-2 OS cells [4] = assay: WST-1 cell proliferation after miR-215 transfection; type: cell-based; conditions: day 5, vs non-specific miRNA control
Description: as §4, §5

Question: O=c1[nH]cc(F)c(=O)[nH]1 [5-fluorouracil] was tested. Which “activation of luciferase expression from miR-192 promoter p53 binding site” value [1] did it give?
Answer: further enhanced

Question: With CN(Cc1cnc2nc(N)nc(N)c2n1)c1ccc(C(=O)N[C@@H](CCC(=O)O)C(=O)O)cc1 [MTX, methotrexate] as the molecule, how does the IC50 (U-2 OS cells [2]; read-out: IC50 of MTX, negative control (non-specific control miRNA), 72 hours) read?
Answer: 49.7 nM

Question: And the IC50 (U-2 OS cells [2]; read-out: IC50 of MTX, positive control (siRNA against DHFR), 72 hours)?
Answer: 37.3 nM

Question: And the cells still alive (U-2 OS cells [2]; miR-215 transduced U-2 OS cells at 200 nM of MTX)?
Answer: 83.6%

Question: What about the “expression of endogenous mature miR-192” value (miR-192; HCT-116 (null-p53)) of the same molecule?
Answer: did not cause any change

Question: What about the “expression of endogenous mature miR-192” value (miR-192; HT-29 (mut-p53)) of the same molecule?
Answer: did not cause any change

Question: What about the “expression of endogenous mature miR-192” value (miR-192; cells with p53 induction (wt-p53), RNU6B normalized) of the same molecule?
Answer: significant increase

Question: What does the source list for Cc1nc2ccc(CN(C)c3ccc(C(=O)N[C@@H](CCC(=O)O)C(=O)O)s3)cc2c(=O)[nH]1 [TDX, Ralitrexed]?
Answer: IC50 (HCT-116(wt-p53) cells; HCT-116(wt-p53) cells transfected with miR-215, 72 hours): 98.7 nM; IC50 (HCT-116(wt-p53) cells; negative control (non-specific control miRNA), 72 hours): 18.6 nM; IC50 (HCT-116(wt-p53) cells; positive control (siRNA against TS), 72 hours): 8.5 nM

B1: miR-215: microRNA miR-215 (SEQ ID NO:9), transfected as precursor, 72 bps hairpin stem loop processed by DICER (nucleic acid)
chain: AUCAUUCAGAAAUGGUAUACAGGAAAAUGACCUAUGAAUUGACAGACAAUAUAGCUGAGUUUGUCUGUCAUUUCUUUAGGCCAAUAUUCUGUAUGACUGUGCUACUUCAA
modifications: delivered as precursor hairpin, further chemistry not given here
Question: What does the source list for B1?
Answer: p53 protein level (p53): significant increase; G2/S ratio (U-2 OS cells [3]; 36 h after transfection (control 0.35)): 0.72; proportion of cells in the G2-phase (U-2 OS cells [3]; 36 h after transfection (control 18.50%)): 29.69%; proportion of cells in the S-phase (U-2 OS cells [3]; 36 h after transfection (control 52.08%)): 41.24%; increase of G2/S ratio (U-2 OS cells [3]; vs control): > 2 fold; TS mRNA expression (TS mRNA): no reduction; luciferase activity, TS 3′UTR construct (3′UTR of TS): significant decrease; luciferase activity, DHFR 3′UTR construct (3′UTR of DHFR): significant decrease; DHFR mRNA expression (DHFR mRNA): no reduction; p21 protein level (p21): significant increase; reduction in cell proliferation (OD) (HCT-116 (wt-p53) cells): approximately 40%; TS protein levels (TS): clearly decreases; reduction in cell proliferation (OD) (U-2 OS cells [4]): ~58%
